B1: Interleukin-27 subunit alpha (Homo sapiens), Q8NEV9 (parent)
chain: MGQTAGDLGWRLSLLLLPLLLVQAGVWGFPRPPGRPQLSLQELRREFTVSLHLARKLLSEVRGQAHRFAESHLPGVNLYLLPLGEQLPDVSLTFQAWRRLSDPERLCFISTTLQPFHALLGGLGTQGRWTNMERMQLWAMRLDLRDLQRHLRFQVLAAGFNLPEEEEEEEEEEEEERKGLLPGALGSALQGPAQVSWPQLLSTYRLLHSLELVLSRAVRELLLLSKAGHSVWPLGFPTLSPQP
partner: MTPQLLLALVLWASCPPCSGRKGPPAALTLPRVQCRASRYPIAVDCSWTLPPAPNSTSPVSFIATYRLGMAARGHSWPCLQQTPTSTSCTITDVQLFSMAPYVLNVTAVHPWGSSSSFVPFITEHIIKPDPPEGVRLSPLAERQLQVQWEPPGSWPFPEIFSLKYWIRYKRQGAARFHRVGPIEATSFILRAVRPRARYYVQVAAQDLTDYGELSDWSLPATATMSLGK
B2: Interleukin-27 subunit beta (Homo sapiens), Q14213 (parent)
chain: B1 partner
partner: B1 chain

Variants of: B1
Conditions: with il27b_human EBI3, Q14213

Row | Variant | effect of a mutation on the interaction
1 | W97A | disrupting interaction
2 | W197A | increasing interaction

Variants of: B2
Conditions: with il27a_human IL27, Q8NEV9

Row | Variant | effect of a mutation on the interaction
3 | D210A | disrupting interaction
4 | F97A | decreasing interaction
5 | E159A | decreasing interaction

Source: IntAct's records for PubMed 20974977
